Assay results as given in paper PMC5345052, “Auto-phosphorylation Represses Protein Kinase R Activity” (Scientific Reports, 2017).

Columns and labels:
[1] = molecular target: truncated phosphor-transfer mutant PKR kinase domain (KD-K296R) with N-terminal split Venus V2 tag (UniProt P19525); test: split Venus fluorescence complementation in HEK293 cells; details: 20 ng/well of each plasmid construct; partner kinase domain carries K296R; n = 5; parent: est. 3.0; read off a plot
[2] = molecular target: truncated PKR kinase domain with N-terminal split Venus V2 tag (UniProt P19525); test: as above; details: 20 ng/well of each plasmid construct, read off a plot
[3] = molecular target: PKR RNA-binding domain with C-terminal split Venus V1 tag; test: as above; details: 20 ng/well of each plasmid construct; n = 5; parent: est. 2.9; read off a plot
[4] = molecular target: T1, truncated phosphor-transfer mutant PKR kinase domain (KD-K296R) with N-terminal split Venus V2 tag, P19525; test: as above; details: chain shown with the change; 20 ng/well of full-length PKR and 30 ng/well of the truncated KD; partner kinase domain carries K296R; n = 7; parent: est. 4.2; read off a plot
T1 chain: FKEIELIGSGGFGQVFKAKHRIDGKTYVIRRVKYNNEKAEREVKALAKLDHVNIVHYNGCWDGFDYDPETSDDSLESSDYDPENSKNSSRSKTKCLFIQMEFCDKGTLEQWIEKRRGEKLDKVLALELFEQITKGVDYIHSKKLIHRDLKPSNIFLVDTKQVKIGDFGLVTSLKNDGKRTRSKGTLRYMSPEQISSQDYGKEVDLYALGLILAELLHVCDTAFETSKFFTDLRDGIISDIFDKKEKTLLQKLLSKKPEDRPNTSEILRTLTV

[5] = molecular target: T2, kinase-dead PKR (K296R), recombinant His-tagged full-length protein kinase R (human), P19525; test: liquid chromatography; recombinant PKR isolated during purification as separate monomer and dimer species; details: remark: other sources report otherwise
T2 chain: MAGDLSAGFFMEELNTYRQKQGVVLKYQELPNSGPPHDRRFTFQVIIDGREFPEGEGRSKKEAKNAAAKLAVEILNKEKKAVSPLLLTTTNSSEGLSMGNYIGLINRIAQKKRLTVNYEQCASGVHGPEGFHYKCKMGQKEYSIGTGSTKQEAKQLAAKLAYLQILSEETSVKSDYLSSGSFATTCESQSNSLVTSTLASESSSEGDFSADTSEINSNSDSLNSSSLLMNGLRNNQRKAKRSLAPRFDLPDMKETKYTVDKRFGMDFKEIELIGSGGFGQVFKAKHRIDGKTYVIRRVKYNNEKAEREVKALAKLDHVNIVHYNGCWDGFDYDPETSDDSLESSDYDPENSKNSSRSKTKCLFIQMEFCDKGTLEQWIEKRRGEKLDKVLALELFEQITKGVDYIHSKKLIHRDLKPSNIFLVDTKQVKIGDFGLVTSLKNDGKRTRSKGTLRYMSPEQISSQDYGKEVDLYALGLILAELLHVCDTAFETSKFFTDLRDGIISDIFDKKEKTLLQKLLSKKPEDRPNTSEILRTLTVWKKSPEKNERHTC

[6] = 5 μM 2-aminopurine (2AP), n = 6, parent: est. 3.8

Molecule: PKR RNA-binding domain with C-terminal split Venus V1 tag S33A; T42A
- response [1]: 3.5
- response [2, 6]: 4.3
- response ([2]; n = 7, parent: est. 2.9): 2.9

Molecule: PKR RNA-binding domain with C-terminal split Venus V1 tag S33E; T42E
- response [1]: 2.6
- response [2, 6]: 3.1
- response ([2]; n = 7, parent: est. 2.9): 2.5

Molecule: truncated PKR kinase domain with N-terminal split Venus V2 tag (from UniProt P19525) K296R
- response [3]: 3

B1: full-length PKR with N-terminal split Venus V1 tag, P19525 H37R; S33A; T42A (protein)
chain: MAGDLSAGFFMEELNTYRQKQGVVLKYQELPNAGPPRDRRFAFQVIIDGREFPEGEGRSKKEAKNAAAKLAVEILNKEKKAVSPLLLTTTNSSEGLSMGNYIGLINRIAQKKRLTVNYEQCASGVHGPEGFHYKCKMGQKEYSIGTGSTKQEAKQLAAKLAYLQILSEETSVKSDYLSSGSFATTCESQSNSLVTSTLASESSSEGDFSADTSEINSNSDSLNSSSLLMNGLRNNQRKAKRSLAPRFDLPDMKETKYTVDKRFGMDFKEIELIGSGGFGQVFKAKHRIDGKTYVIKRVKYNNEKAEREVKALAKLDHVNIVHYNGCWDGFDYDPETSDDSLESSDYDPENSKNSSRSKTKCLFIQMEFCDKGTLEQWIEKRRGEKLDKVLALELFEQITKGVDYIHSKKLIHRDLKPSNIFLVDTKQVKIGDFGLVTSLKNDGKRTRSKGTLRYMSPEQISSQDYGKEVDLYALGLILAELLHVCDTAFETSKFFTDLRDGIISDIFDKKEKTLLQKLLSKKPEDRPNTSEILRTLTVWKKSPEKNERHTC
- response [4]: 21

B2: full-length PKR with N-terminal split Venus V1 tag, P19525 S33E; T42E; R262D (protein)
chain: MAGDLSAGFFMEELNTYRQKQGVVLKYQELPNEGPPHDRRFEFQVIIDGREFPEGEGRSKKEAKNAAAKLAVEILNKEKKAVSPLLLTTTNSSEGLSMGNYIGLINRIAQKKRLTVNYEQCASGVHGPEGFHYKCKMGQKEYSIGTGSTKQEAKQLAAKLAYLQILSEETSVKSDYLSSGSFATTCESQSNSLVTSTLASESSSEGDFSADTSEINSNSDSLNSSSLLMNGLRNNQRKAKRSLAPRFDLPDMKETKYTVDKDFGMDFKEIELIGSGGFGQVFKAKHRIDGKTYVIKRVKYNNEKAEREVKALAKLDHVNIVHYNGCWDGFDYDPETSDDSLESSDYDPENSKNSSRSKTKCLFIQMEFCDKGTLEQWIEKRRGEKLDKVLALELFEQITKGVDYIHSKKLIHRDLKPSNIFLVDTKQVKIGDFGLVTSLKNDGKRTRSKGTLRYMSPEQISSQDYGKEVDLYALGLILAELLHVCDTAFETSKFFTDLRDGIISDIFDKKEKTLLQKLLSKKPEDRPNTSEILRTLTVWKKSPEKNERHTC
- response [4]: 12

B3: full-length PKR with N-terminal split Venus V1 tag, P19525 H37R (protein)
chain: MAGDLSAGFFMEELNTYRQKQGVVLKYQELPNSGPPRDRRFTFQVIIDGREFPEGEGRSKKEAKNAAAKLAVEILNKEKKAVSPLLLTTTNSSEGLSMGNYIGLINRIAQKKRLTVNYEQCASGVHGPEGFHYKCKMGQKEYSIGTGSTKQEAKQLAAKLAYLQILSEETSVKSDYLSSGSFATTCESQSNSLVTSTLASESSSEGDFSADTSEINSNSDSLNSSSLLMNGLRNNQRKAKRSLAPRFDLPDMKETKYTVDKRFGMDFKEIELIGSGGFGQVFKAKHRIDGKTYVIKRVKYNNEKAEREVKALAKLDHVNIVHYNGCWDGFDYDPETSDDSLESSDYDPENSKNSSRSKTKCLFIQMEFCDKGTLEQWIEKRRGEKLDKVLALELFEQITKGVDYIHSKKLIHRDLKPSNIFLVDTKQVKIGDFGLVTSLKNDGKRTRSKGTLRYMSPEQISSQDYGKEVDLYALGLILAELLHVCDTAFETSKFFTDLRDGIISDIFDKKEKTLLQKLLSKKPEDRPNTSEILRTLTVWKKSPEKNERHTC
- response [4]: 3.8

B4: full-length PKR with N-terminal split Venus V1 tag, P19525 S33E; T42E; K261D (protein)
chain: MAGDLSAGFFMEELNTYRQKQGVVLKYQELPNEGPPHDRRFEFQVIIDGREFPEGEGRSKKEAKNAAAKLAVEILNKEKKAVSPLLLTTTNSSEGLSMGNYIGLINRIAQKKRLTVNYEQCASGVHGPEGFHYKCKMGQKEYSIGTGSTKQEAKQLAAKLAYLQILSEETSVKSDYLSSGSFATTCESQSNSLVTSTLASESSSEGDFSADTSEINSNSDSLNSSSLLMNGLRNNQRKAKRSLAPRFDLPDMKETKYTVDDRFGMDFKEIELIGSGGFGQVFKAKHRIDGKTYVIKRVKYNNEKAEREVKALAKLDHVNIVHYNGCWDGFDYDPETSDDSLESSDYDPENSKNSSRSKTKCLFIQMEFCDKGTLEQWIEKRRGEKLDKVLALELFEQITKGVDYIHSKKLIHRDLKPSNIFLVDTKQVKIGDFGLVTSLKNDGKRTRSKGTLRYMSPEQISSQDYGKEVDLYALGLILAELLHVCDTAFETSKFFTDLRDGIISDIFDKKEKTLLQKLLSKKPEDRPNTSEILRTLTVWKKSPEKNERHTC
- response [4]: 3.6

B5: full-length PKR with N-terminal split Venus V1 tag, P19525 R262D (protein)
chain: MAGDLSAGFFMEELNTYRQKQGVVLKYQELPNSGPPHDRRFTFQVIIDGREFPEGEGRSKKEAKNAAAKLAVEILNKEKKAVSPLLLTTTNSSEGLSMGNYIGLINRIAQKKRLTVNYEQCASGVHGPEGFHYKCKMGQKEYSIGTGSTKQEAKQLAAKLAYLQILSEETSVKSDYLSSGSFATTCESQSNSLVTSTLASESSSEGDFSADTSEINSNSDSLNSSSLLMNGLRNNQRKAKRSLAPRFDLPDMKETKYTVDKDFGMDFKEIELIGSGGFGQVFKAKHRIDGKTYVIKRVKYNNEKAEREVKALAKLDHVNIVHYNGCWDGFDYDPETSDDSLESSDYDPENSKNSSRSKTKCLFIQMEFCDKGTLEQWIEKRRGEKLDKVLALELFEQITKGVDYIHSKKLIHRDLKPSNIFLVDTKQVKIGDFGLVTSLKNDGKRTRSKGTLRYMSPEQISSQDYGKEVDLYALGLILAELLHVCDTAFETSKFFTDLRDGIISDIFDKKEKTLLQKLLSKKPEDRPNTSEILRTLTVWKKSPEKNERHTC
- response [4]: 13

B6: full-length PKR with N-terminal split Venus V1 tag, P19525 K261D (protein)
chain: MAGDLSAGFFMEELNTYRQKQGVVLKYQELPNSGPPHDRRFTFQVIIDGREFPEGEGRSKKEAKNAAAKLAVEILNKEKKAVSPLLLTTTNSSEGLSMGNYIGLINRIAQKKRLTVNYEQCASGVHGPEGFHYKCKMGQKEYSIGTGSTKQEAKQLAAKLAYLQILSEETSVKSDYLSSGSFATTCESQSNSLVTSTLASESSSEGDFSADTSEINSNSDSLNSSSLLMNGLRNNQRKAKRSLAPRFDLPDMKETKYTVDDRFGMDFKEIELIGSGGFGQVFKAKHRIDGKTYVIKRVKYNNEKAEREVKALAKLDHVNIVHYNGCWDGFDYDPETSDDSLESSDYDPENSKNSSRSKTKCLFIQMEFCDKGTLEQWIEKRRGEKLDKVLALELFEQITKGVDYIHSKKLIHRDLKPSNIFLVDTKQVKIGDFGLVTSLKNDGKRTRSKGTLRYMSPEQISSQDYGKEVDLYALGLILAELLHVCDTAFETSKFFTDLRDGIISDIFDKKEKTLLQKLLSKKPEDRPNTSEILRTLTVWKKSPEKNERHTC
- response [4]: 3.4

B7: full-length PKR with N-terminal split Venus V1 tag, P19525 H37R; S33E; T42E (protein)
chain: MAGDLSAGFFMEELNTYRQKQGVVLKYQELPNEGPPRDRRFEFQVIIDGREFPEGEGRSKKEAKNAAAKLAVEILNKEKKAVSPLLLTTTNSSEGLSMGNYIGLINRIAQKKRLTVNYEQCASGVHGPEGFHYKCKMGQKEYSIGTGSTKQEAKQLAAKLAYLQILSEETSVKSDYLSSGSFATTCESQSNSLVTSTLASESSSEGDFSADTSEINSNSDSLNSSSLLMNGLRNNQRKAKRSLAPRFDLPDMKETKYTVDKRFGMDFKEIELIGSGGFGQVFKAKHRIDGKTYVIKRVKYNNEKAEREVKALAKLDHVNIVHYNGCWDGFDYDPETSDDSLESSDYDPENSKNSSRSKTKCLFIQMEFCDKGTLEQWIEKRRGEKLDKVLALELFEQITKGVDYIHSKKLIHRDLKPSNIFLVDTKQVKIGDFGLVTSLKNDGKRTRSKGTLRYMSPEQISSQDYGKEVDLYALGLILAELLHVCDTAFETSKFFTDLRDGIISDIFDKKEKTLLQKLLSKKPEDRPNTSEILRTLTVWKKSPEKNERHTC
- response [4]: 3.1

B8: kinase-dead PKR (K296R), recombinant His-tagged full-length protein kinase R, P19525 1-551 (enzyme)
chain: MAGDLSAGFFMEELNTYRQKQGVVLKYQELPNSGPPHDRRFTFQVIIDGREFPEGEGRSKKEAKNAAAKLAVEILNKEKKAVSPLLLTTTNSSEGLSMGNYIGLINRIAQKKRLTVNYEQCASGVHGPEGFHYKCKMGQKEYSIGTGSTKQEAKQLAAKLAYLQILSEETSVKSDYLSSGSFATTCESQSNSLVTSTLASESSSEGDFSADTSEINSNSDSLNSSSLLMNGLRNNQRKAKRSLAPRFDLPDMKETKYTVDKRFGMDFKEIELIGSGGFGQVFKAKHRIDGKTYVIRRVKYNNEKAEREVKALAKLDHVNIVHYNGCWDGFDYDPETSDDSLESSDYDPENSKNSSRSKTKCLFIQMEFCDKGTLEQWIEKRRGEKLDKVLALELFEQITKGVDYIHSKKLIHRDLKPSNIFLVDTKQVKIGDFGLVTSLKNDGKRTRSKGTLRYMSPEQISSQDYGKEVDLYALGLILAELLHVCDTAFETSKFFTDLRDGIISDIFDKKEKTLLQKLLSKKPEDRPNTSEILRTLTVWKKSPEKNERHTC
- stoichiometry N [5]: 2
